Reference: US20210130436A1
Blank lines part the entries; values can stand above or below the substance they belong to.

How the values were obtained:
Experiment in all cases: cell-based or functional assay
[1] = target: PD-L1 on K562/OKT3/PD-L1 artificial antigen presenting cells (UniProt Q9NZQ7)
[2] = target: CD28 on Jurkat/IL2 reporter cells (human) (UniProt P10747)
PD-L1 (human) = PD-L1 (human) (UniProt Q9NZQ7)
CD28 (human) = CD28 (human) (UniProt P10747)

Chain of PD-L1 (human) (Q9NZQ7 19-290): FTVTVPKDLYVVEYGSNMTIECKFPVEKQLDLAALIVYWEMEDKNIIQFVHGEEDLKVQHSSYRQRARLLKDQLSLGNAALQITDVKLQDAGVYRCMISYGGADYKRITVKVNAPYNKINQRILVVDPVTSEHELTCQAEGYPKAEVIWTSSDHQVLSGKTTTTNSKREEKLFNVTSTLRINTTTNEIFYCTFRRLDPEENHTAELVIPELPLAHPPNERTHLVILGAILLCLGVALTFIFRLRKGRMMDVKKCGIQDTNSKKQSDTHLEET
Chain of PD-L1 on K562/OKT3/PD-L1 artificial antigen presenting cells (Q9NZQ7 19-290): as above

Substance: CD80 E35D/M47V/N48T/L85Q IgV-Fc (inert) (Fc fusion)
Fold Increase over WT CD80-IgV-Fc (RLU, Jurkat/IL2 + K562/OKT3/PD-L1 reporter assay, 50 nM) [1]: 4.4 fold
Relative Luciferase Units (RLU), Jurkat/IL2 + K562/OKT3/PD-L1 reporter assay, CD80-Fc Conc 50 nM [1]: 897 RLU
Fold Increase over WT CD80-IgV-Fc (RLU, Jurkat/IL2 + K562/OKT3/PD-L1 reporter assay, 50 nM) [2]: 4.4 fold
Relative Luciferase Units (RLU), Jurkat/IL2 + K562/OKT3/PD-L1 reporter assay, CD80-Fc Conc 50 nM [2]: 897 RLU

Substance: CD80 Q27H/E35D/M47I/L85Q/D90G IgV-Fc (inert) (Fc fusion)
Fold Increase over WT CD80-IgV-Fc (RLU, Jurkat/IL2 + K562/OKT3/PD-L1 reporter assay, 50 nM) [1]: 6.4 fold
Relative Luciferase Units (RLU), Jurkat/IL2 + K562/OKT3/PD-L1 reporter assay, CD80-Fc Conc 50 nM [1]: 1310 RLU
Fold Increase over WT CD80-IgV-Fc (RLU, Jurkat/IL2 + K562/OKT3/PD-L1 reporter assay, 50 nM) [2]: 6.4 fold
Relative Luciferase Units (RLU), Jurkat/IL2 + K562/OKT3/PD-L1 reporter assay, CD80-Fc Conc 50 nM [2]: 1310 RLU

Substance: variant CD80 IgV-Fc (effector) E35D/M43L/L70M (Fc fusion)
RLU, Jurkat/IL2 reporter; K562/OKT3/PD-L1 aAPC, Combination of FcR and/or PD-L1 Dependent Cross-Linking; 0.6 nM (PD-L1 (human)): 1020 RLU
RLU, Jurkat/IL2 reporter; K562/OKT3/PD-L1 aAPC, Combination of FcR and/or PD-L1 Dependent Cross-Linking; 1.9 nM (PD-L1 (human)): 1250 RLU
RLU, Jurkat/IL2 reporter; K562/OKT3/PD-L1 aAPC, Combination of FcR and/or PD-L1 Dependent Cross-Linking; 5.6 nM (PD-L1 (human)): 1620 RLU
RLU, Jurkat/IL2 reporter; K562/OKT3/PD-L1 aAPC, Combination of FcR and/or PD-L1 Dependent Cross-Linking; 16.7 nM (PD-L1 (human)): 2050 RLU
RLU, Jurkat/IL2 reporter; K562/OKT3/PD-L1 aAPC, Combination of FcR and/or PD-L1 Dependent Cross-Linking; 50 nM (PD-L1 (human)): 2780 RLU
IL-2 release, primary T cells; K562/OKT3 (No PD-L1); 1 nM (CD28 (human)): 8020
IL-2 release, primary T cells; K562/OKT3 (No PD-L1); 10 nM (CD28 (human)): 7710
IL-2 release, primary T cells; K562/OKT3 (No PD-L1); 100 nM (CD28 (human)): 10500
RLU, Jurkat/IL2 reporter; K562/OKT3 aAPC, FcR Dependent Cross-Linking (No PD-L1); 0.6 nM (CD28 (human)): 1350 RLU
RLU, Jurkat/IL2 reporter; K562/OKT3 aAPC, FcR Dependent Cross-Linking (No PD-L1); 1.9 nM (CD28 (human)): 1340 RLU
RLU, Jurkat/IL2 reporter; K562/OKT3 aAPC, FcR Dependent Cross-Linking (No PD-L1); 5.6 nM (CD28 (human)): 1400 RLU
RLU, Jurkat/IL2 reporter; K562/OKT3 aAPC, FcR Dependent Cross-Linking (No PD-L1); 16.7 nM (CD28 (human)): 1340 RLU
RLU, Jurkat/IL2 reporter; K562/OKT3 aAPC, FcR Dependent Cross-Linking (No PD-L1); 50 nM (CD28 (human)): 1570 RLU

Other lines, results leading:

Fold Increase over WT CD80-IgV-Fc (RLU, Jurkat/IL2 + K562/OKT3/PD-L1 reporter assay, 50 nM) [1]: 8.1 fold
Relative Luciferase Units (RLU), Jurkat/IL2 + K562/OKT3/PD-L1 reporter assay, CD80-Fc Conc 50 nM [1]: 1670 RLU
Fold Increase over WT CD80-IgV-Fc (RLU, Jurkat/IL2 + K562/OKT3/PD-L1 reporter assay, 50 nM) [2]: 8.1 fold
Relative Luciferase Units (RLU), Jurkat/IL2 + K562/OKT3/PD-L1 reporter assay, CD80-Fc Conc 50 nM [2]: 1670 RLU
Substance: CD80 E35D/T41S/M43V/M47I/L70M/A71G IgV-Fc (inert) (Fc fusion)

IL-2 release, primary T cells; K562/OKT3/PD-L1; 1 nM (PD-L1 (human)): 72
IL-2 release, primary T cells; K562/OKT3/PD-L1; 10 nM (PD-L1 (human)): 268
IL-2 release, primary T cells; K562/OKT3/PD-L1; 100 nM (PD-L1 (human)): 1460
IL-2-luciferase RLU, Jurkat + CHO/OKT3/PD-L1 aAPC, 0.6 nM (CD28 (human)): 509 RLU
IL-2-luciferase RLU, Jurkat + CHO/OKT3/PD-L1 aAPC, 1.9 nM (CD28 (human)): 618 RLU
IL-2-luciferase RLU, Jurkat + CHO/OKT3/PD-L1 aAPC, 5.6 nM (CD28 (human)): 886 RLU
IL-2-luciferase RLU, Jurkat + CHO/OKT3/PD-L1 aAPC, 16.7 nM (CD28 (human)): 1380 RLU
IL-2-luciferase RLU, Jurkat + CHO/OKT3/PD-L1 aAPC, 50 nM (CD28 (human)): 2000 RLU
IL-2-luciferase RLU, Jurkat + CHO/OKT3 aAPC (no PD-L1), 5.6 nM (CD28 (human)): 458 RLU
IL-2-luciferase RLU, Jurkat + CHO/OKT3 aAPC (no PD-L1), 16.7 nM (CD28 (human)): 415 RLU
IL-2-luciferase RLU, Jurkat + CHO/OKT3 aAPC (no PD-L1), 50 nM (CD28 (human)): 432 RLU
Substance: variant CD80 IgV-Fc (inert) A26E/E35D/M47L/L85Q (Fc fusion)
